According to US20260022151A1 (TSINGHUA UNIVERSITY, published 2026):

Assays:
[1] = target: endogenous DR5 receptor on human tumor cells (human, UniProt O14763 56-440); test: cell-based or functional assay
[2] = target: T1, endogenous CXCR4 receptor on human tumor cells (human, UniProt P61073 1-352); test: FRAP and confocal imaging on SJSA-1 cells, 200 nM
T1 construct: whole, on cells; also called CXC motif chemokine receptor 4
Protocol: Fluorescence recovery after photobleaching (FRAP) is an experiment commonly used to verify liquid-liquid phase separation, see, for example, Alberti, Simon et al., Journal of Molecular Biology 430(23): 4806-4820, 2018: McSwiggen, David T et al., Genes & Development 33(23-24): 1619-1634, 2019. Therefore, FRAP was performed on the same droplets as in Example 4 that contain 12.5 μM CN-P2S2-DN protein. After bleaching with 488 nm laser light at a laser intensity of 50% for 1 second, fluorescence images were taken under a NIKON A1R HD25 laser confocal microscope (purchased from Nikon, Inc.) with a 100× oil immersion objective lens. The images were analyzed and exported using NIS-Elements AR Analysis (Nikon, Inc.) and Image J (National Institutes of Health) software.
SJSA-1 cells were treated with 200 nM CN-P2S2-DN (labeled with Alexa 561) for 4 hrs in the same manner as in Example 5, and photobleaching analysis was performed.

CXCR4-mCherry [3] = target: T2, CXCR4-mCherry; test: time-lapse confocal imaging, HEK293T cells co-expressing CXCR4-mCherry and DR5-GFP, 200 nM
T2 construct: Co-expressed with DR5-GFP on transfected HEK293T cells; also called exogenous CXCR4; CXCR4 fused with an mCherry tag at the C-terminal
T2 sequence (chain, as listed by the source limits assumed): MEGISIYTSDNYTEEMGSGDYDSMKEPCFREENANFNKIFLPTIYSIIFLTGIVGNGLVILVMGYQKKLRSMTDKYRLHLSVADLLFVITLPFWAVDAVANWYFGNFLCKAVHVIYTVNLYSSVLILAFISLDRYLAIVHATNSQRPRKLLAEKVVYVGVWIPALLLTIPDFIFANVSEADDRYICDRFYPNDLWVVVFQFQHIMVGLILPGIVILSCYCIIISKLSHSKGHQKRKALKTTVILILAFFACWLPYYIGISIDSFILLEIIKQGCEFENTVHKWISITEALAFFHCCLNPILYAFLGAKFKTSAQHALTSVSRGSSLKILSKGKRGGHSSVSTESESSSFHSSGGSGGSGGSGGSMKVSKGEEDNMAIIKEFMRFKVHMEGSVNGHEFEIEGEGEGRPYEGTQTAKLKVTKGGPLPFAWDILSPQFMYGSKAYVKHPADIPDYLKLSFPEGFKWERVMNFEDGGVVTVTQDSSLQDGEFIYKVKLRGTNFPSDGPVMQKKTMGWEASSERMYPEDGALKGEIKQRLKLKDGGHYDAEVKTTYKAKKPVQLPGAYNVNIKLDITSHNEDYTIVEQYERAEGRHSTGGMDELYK

DR5-GFP [4] = target: T3, DR5-GFP; test: as above
T3 construct: Co-expressed with CXCR4-mCherry on transfected HEK293T cells; also called exogenous DR5; DR5 fused with a GFP tag at the C-terminal

CXCR4-mCherry [5] = target: T2, CXCR4-mCherry; test: live-cell confocal colocalisation, HEK293T cells co-expressing CXCR4-mCherry and DR5-GFP
Protocol: (§1) HEK293T cells were seeded at a density of 5×10⁵ cells/well into a 4-well chamber 35 mm culture dish (purchased from In Vitro Scientific) and cultured at 37° C., 5% CO₂ until the cell density reached approximately 60-70% confluence. Then, plasmids pCDNA3.1-CXCR4-mCherry and pCDNA3.1-DR5-GFP were gently pipetted and mixed with Opti-MEM Medium (purchased from Invitrogen. Inc.) without antibiotics and serum in a sterile centrifuge tube, in an amount of 0.5 μg pCDNA3.1-CXCR4-mCherry and 0.5 μg pCDNA3.1-DR5-GFP per well. Lipo8000™ transfection reagent (purchased from Shanghai Bio-Tech Biotechnology Co., Ltd.) was added and gently pipetted and mixed again to obtain a plasmid solution for transfection (i.e., each 100 μl Opti-MEM Medium contained 0.5 μg of plasmids pCDNA3.1-CXCR4-mCherry and pCDNA3.1-DR5-GFP, and 1.6 μl Lipo8000). The evenly mixed plasmid solution was added dropwise to each well, gently mixed, and then cultured for 24-36 hours at 37° C., and 5% CO₂ to obtain HEK293T cells co-expressing CXCR4-mCherry and DR5-GFP.
(§2) 200 nM CN-P2S2-DN protein or its different truncated variants P2S2-CN, P2S2. P2S2-DN (all labeled with fluorescent dye Alexa 647) were added to the above cell culture medium. HEK293T cells treated in the same manner with blank solution under the same conditions were used as negative controls. […]

DR5-GFP [6] = target: T3, DR5-GFP; test: as above
Protocol: as §1, §2

T1 sequence (P61073 whole entry): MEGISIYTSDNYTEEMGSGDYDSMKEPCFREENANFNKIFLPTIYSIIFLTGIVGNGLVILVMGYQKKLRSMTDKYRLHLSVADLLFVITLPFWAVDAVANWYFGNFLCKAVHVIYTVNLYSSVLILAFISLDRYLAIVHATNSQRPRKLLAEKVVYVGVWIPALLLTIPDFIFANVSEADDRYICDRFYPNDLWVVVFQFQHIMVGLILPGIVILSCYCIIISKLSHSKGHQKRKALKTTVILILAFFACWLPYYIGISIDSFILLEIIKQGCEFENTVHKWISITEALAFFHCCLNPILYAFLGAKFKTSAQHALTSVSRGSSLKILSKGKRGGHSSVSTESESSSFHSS

Row | Binder | IC50 of apoptosis induction in CXCR4/DR5 COLO-205 cells (Annexin V-FITC/PI flow cytometry) [1] | IC50 of apoptosis induction in CXCR4/DR5 SJSA-1 cells (Annexin V-FITC/PI flow cytometry) [1] | apoptosis ratio in other CXCR4+/DR5+ double-positive tumor cell lines, 200 nM, 5 hr [1] | apoptosis ratio, COLO-205 cells, 100 nM, 3 hr [1] | apoptosis ratio, SJSA-1 tumor cells, 100 nM, 3 hr [1] | binding result [2] | binding result (CXCR4-mCherry [3]) | binding result (DR5-GFP [4]) | binding result (CXCR4-mCherry [5]) | binding result (DR5-GFP [6])
1 | recombinant protein CN-P2S2-DN (designed binder, fluorescent dye label by Alexa Fluor C5 maleimide (Alexa 647, Alexa 561 or Alexa 546 in the imaging experiments); labelled residue not stated, MBP removed by TEV protease; Unlabelled, endotoxin-free protein was used in the apoptosis assays; also called synthetic ligand CN-P2S2-DN; recombinant ligand CN-P2S2-DN) EVQLMESGGGLVQAGGSLRLSCAASGRTFNNYAMGWFRRAPKGEREFVAAITRSGVRSGVSAIYGDSVKDRFTISRDNAKNTLYLQMNSLKPEDTAVYTCAASAIGSGALRRFEYDYSGQGTQVTVSSGGSGGSGGSGGSASMKGGSWGGSKKTPPPVPPRTTSKGGSGGSGGSGGSKKTPPPVPPRTTSKGGSGGSGGSGGSDLNMPAYVKFNYMAEREDELSLIKGTKVIVMEKSSDGWWRGSYNGQVGWFPSNYVTEEGDSPLASGAGGSEGGGSEGGTSGATDLNMPAYVKFNYMAEREDELSLIKGTKVIVMEKSSDGWWRGSYNGQVGWFPSNYVTEEGDSPLGSMGMGEVQLLESGGGLVQPGGSLRLSCAASGTFDKINNMGWYRQAPGKQRDLVAQITPGGITDYADSVKGRFTISRDNSKNTLYLQMNSLRPEDTAVYYCNAEILKRAYIDVYVNYWGQGTLVTVSS | 28.9 nM | 10.1 nM | > 40% | 74% | 82.5% | binds | binds | binds |  | 
2 | truncated variant P2S2 (other, fluorescent dye label by Alexa Fluor C5 maleimide; labelled residue not stated) MKGGSWGGSKKTPPPVPPRTTSKGGSGGSGGSGGSKKTPPPVPPRTTSKGGSGGSGGSGGSDLNMPAYVKFNYMAEREDELSLIKGTKVIVMEKSSDGWWRGSYNGQVGWFPSNYVTEEGDSPLASGAGGSEGGGSEGGTSGATDLNMPAYVKFNYMAEREDELSLIKGTKVIVMEKSSDGWWRGSYNGQVGWFPSNYVTEEGDSPLG |  |  |  |  |  |  |  |  | no binding (tested: 200 nM) | no binding (tested: 200 nM)
